Earlier results on two substances are cited in publication PMC10830413.

Like-named read-outs stand apart in the source and are kept apart here.

Data set [1] deals with LPHN3 (UniProt Q9HAR2).
Data set [2] concerns the target LPHN3 (UniProt Q9HAR2). The source holds these as a separate data set.

Chain of UniProt Q9HAR2 (Q9HAR2 20-862): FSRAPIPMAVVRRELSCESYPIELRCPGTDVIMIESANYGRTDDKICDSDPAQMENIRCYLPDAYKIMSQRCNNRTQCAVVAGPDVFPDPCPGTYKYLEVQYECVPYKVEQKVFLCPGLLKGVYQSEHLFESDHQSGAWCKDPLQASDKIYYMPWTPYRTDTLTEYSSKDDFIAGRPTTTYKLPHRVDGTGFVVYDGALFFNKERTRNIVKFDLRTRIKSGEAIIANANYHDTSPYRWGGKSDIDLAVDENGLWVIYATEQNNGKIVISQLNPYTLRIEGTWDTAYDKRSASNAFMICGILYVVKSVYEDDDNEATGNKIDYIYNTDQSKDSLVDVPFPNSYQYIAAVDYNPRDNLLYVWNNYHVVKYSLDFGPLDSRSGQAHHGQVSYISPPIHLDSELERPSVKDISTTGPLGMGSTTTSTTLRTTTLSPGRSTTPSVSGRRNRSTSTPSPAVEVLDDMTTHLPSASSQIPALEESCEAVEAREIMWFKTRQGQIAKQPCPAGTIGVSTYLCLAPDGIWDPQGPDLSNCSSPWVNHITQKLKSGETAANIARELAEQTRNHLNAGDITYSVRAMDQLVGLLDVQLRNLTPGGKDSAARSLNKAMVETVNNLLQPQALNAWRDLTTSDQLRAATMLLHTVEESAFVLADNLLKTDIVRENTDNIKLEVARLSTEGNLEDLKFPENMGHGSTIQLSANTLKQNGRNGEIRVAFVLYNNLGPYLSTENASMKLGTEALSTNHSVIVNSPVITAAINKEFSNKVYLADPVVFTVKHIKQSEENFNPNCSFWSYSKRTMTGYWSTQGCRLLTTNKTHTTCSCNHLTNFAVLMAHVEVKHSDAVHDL

Turning to FLRT3 (from UniProt Q9NZU0), in the data set with LPHN3 [1], the equilibrium dissociation constant (Kd) is 15 nM.

In the case of TENM2 (from UniProt Q9NT68), the Kd with LPHN3 [2] was 500 nM.
